Patent publication US20250136686A1 (GUANGDONG KEGUANDA PHARMACEUTICAL TECHNOLOGY, published 2025)
Residue numbers refer to the chain shown, from its start.

B1: 19-A11-H3-B11-VH3VL2 humanized antibody (hu.CA4) (antibody, V domains shown)
VH: EVQLVQSGAEVKKPGASVKVSCKASGFTLTEYTIHWVRQAPGQGLEWIGWFYPGSGGIKYNEKFQDRVTLTADTSISTVYMELSRLRSDDTVVYFCARHAFYRNYEYFDVWGTGTMVTVSS
VL: DIVMTQAPLSLPVTPGTPASISCRSSKSLLHSNGITYLYWYLQKPGQSPQLLIYQMSNLASGVPDRFSSSGSGTDFTLKISRVEAEDVGVYYCAQNLELPLTFGAGTKLEIK
B2: 19-A11-H3-B11 chimeric antibody (CA1) (antibody, V domains shown)
VH: EVQLQQSGAELVRPGASVKLSCKASGFTLTEYTIHWVKQRSGQGLEWIGWFYPGSGGIKYNEKFKDKATLTADESSSTVYMELSRLTSEDSAVYFCARHAFYRNYEYFDVWGTGTTVTVSS
VL: B1 VL with P8A, L9F, L11N, P15L, P18S, K79R, I111L
B3: humanized antibody VH1-VL1 (hu.CA1) (antibody, V domains shown)
VH: B1 VH with T74E, V92A
VL: B1 VL with L9F
B4: humanized antibody VH3-VL1 (hu.CA3) (antibody, V domains shown)
VH: B1 VH
VL: B1 VL with L9F
B5: humanized antibody VH1-VL2 (hu.CA2) (antibody, V domains shown)
VH: B1 VH with T74E, V92A
VL: B1 VL
B6: humanized antibody VH2-VL2 (antibody, V domains shown)
VH: B1 VH with T74E, I76A, R85S, D89E, V92A
VL: B1 VL
notes: IgG1, kappa; tested as culture supernatant; also called VH-HM2 / VL-HM2
B7: humanized antibody VH1-VL3 (antibody, V domains shown)
VH: B1 VH with T74E, V92A
VL: B1 VL with L9F, L11S, P15L, L42Q, K44R, Q50R
notes: IgG1, kappa; tested as culture supernatant; also called VH-HM1 / VL-HM3
B8: humanized antibody VH3-VL3 (antibody, V domains shown)
VH: B1 VH
VL: B1 VL with L9F, L11S, P15L, L42Q, K44R, Q50R
notes: IgG1, kappa; tested as culture supernatant; also called VH-HM3 / VL-HM3
B9: humanized antibody VH4-VL2 (antibody, V domains shown)
VH: B1 VH with R38K, T74E, I76S, V92A
VL: B1 VL
notes: IgG1, kappa; tested as culture supernatant; also called VH-HM4 / VL-HM2
B10: humanized antibody VH2-VL3 (antibody, V domains shown)
VH: B1 VH with T74E, I76A, R85S, D89E, V92A
VL: B1 VL with L9F, L11S, P15L, L42Q, K44R, Q50R
notes: IgG1, kappa; tested as culture supernatant; also called VH-HM2 / VL-HM3
B11: humanized antibody VH4-VL3 (antibody, V domains shown)
VH: B1 VH with R38K, T74E, I76S, V92A
VL: B1 VL with L9F, L11S, P15L, L42Q, K44R, Q50R
notes: IgG1, kappa; tested as culture supernatant; also called VH-HM4 / VL-HM3
B12: humanized antibody VH4-VL1 (antibody, V domains shown)
VH: B1 VH with R38K, T74E, I76S, V92A
VL: B1 VL with L9F
notes: IgG1, kappa; tested as culture supernatant; also called VH-HM4 / VL-HM1
B13: humanized antibody VH2-VL1 (antibody, V domains shown)
VH: B1 VH with T74E, I76A, R85S, D89E, V92A
VL: B1 VL with L9F
notes: IgG1, kappa; tested as culture supernatant; also called VH-HM2 / VL-HM1

Molecular target: T1, CD101 (human, UniProt Q93033 21-1021)
T1 sequence (looked up): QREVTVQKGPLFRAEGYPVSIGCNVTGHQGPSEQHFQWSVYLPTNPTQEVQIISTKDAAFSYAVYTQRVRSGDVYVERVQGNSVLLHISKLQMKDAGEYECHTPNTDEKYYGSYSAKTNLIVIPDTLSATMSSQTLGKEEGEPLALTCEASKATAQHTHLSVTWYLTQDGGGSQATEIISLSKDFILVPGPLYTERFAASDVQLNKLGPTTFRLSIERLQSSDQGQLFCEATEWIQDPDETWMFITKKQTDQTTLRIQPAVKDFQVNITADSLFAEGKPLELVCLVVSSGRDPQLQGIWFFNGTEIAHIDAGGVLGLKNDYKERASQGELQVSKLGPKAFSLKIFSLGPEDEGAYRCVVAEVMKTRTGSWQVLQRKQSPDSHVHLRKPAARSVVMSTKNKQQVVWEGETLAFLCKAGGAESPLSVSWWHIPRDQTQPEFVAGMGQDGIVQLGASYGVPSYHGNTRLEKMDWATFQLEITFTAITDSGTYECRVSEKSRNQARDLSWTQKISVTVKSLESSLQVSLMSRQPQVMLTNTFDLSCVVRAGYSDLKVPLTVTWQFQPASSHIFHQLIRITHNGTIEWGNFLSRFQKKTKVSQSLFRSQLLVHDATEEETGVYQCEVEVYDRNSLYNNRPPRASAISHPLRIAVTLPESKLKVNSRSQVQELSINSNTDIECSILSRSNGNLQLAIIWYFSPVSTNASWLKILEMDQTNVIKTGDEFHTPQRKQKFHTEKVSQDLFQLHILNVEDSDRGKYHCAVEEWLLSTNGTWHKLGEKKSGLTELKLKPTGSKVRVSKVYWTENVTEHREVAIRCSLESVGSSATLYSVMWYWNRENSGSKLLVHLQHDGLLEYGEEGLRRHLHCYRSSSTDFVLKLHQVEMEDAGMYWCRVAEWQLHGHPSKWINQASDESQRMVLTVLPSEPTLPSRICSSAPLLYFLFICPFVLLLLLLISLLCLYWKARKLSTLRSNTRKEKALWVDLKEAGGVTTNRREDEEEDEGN
Experiment: cell-based or functional assay

Q: How did the “inhibitory effect for CD101 (flow cytometry of CD101 on Jurkat cells overexpressing CD101, 3 h, 1,600 ng/mL)” value turn out when B1 was run?
A: Its value is roughly 80%.

Q: What about the “inhibitory effect for CD101 (flow cytometry of CD101 on Jurkat cells overexpressing CD101, 8 h, 1,600 ng/mL)” value of the same binder?
A: The value was no less than 90%.

Q: What does the source list for B2?
A: inhibitory effect for CD101 (flow cytometry of CD101 on Jurkat cells overexpressing CD101, 3 h, 1,600 ng/mL): ~80%; inhibitory effect for CD101 (flow cytometry of CD101 on Jurkat cells overexpressing CD101, 8 h, 1,600 ng/mL): ≥ 90%

Q: How did the “inhibitory effect for CD101 (flow cytometry of CD101 on Jurkat cells overexpressing CD101, 3 h, 1,600 ng/mL)” value turn out when B3 was run?
A: Its value is roughly 80%.

Q: What about the “inhibitory effect for CD101 (flow cytometry of CD101 on Jurkat cells overexpressing CD101, 8 h, 1,600 ng/mL)” value of the same binder?
A: Its value is no less than 90%.

Q: What does the source list for B4?
A: inhibitory effect for CD101 (flow cytometry of CD101 on Jurkat cells overexpressing CD101, 3 h, 1,600 ng/mL): ~80%; inhibitory effect for CD101 (flow cytometry of CD101 on Jurkat cells overexpressing CD101, 8 h, 1,600 ng/mL): ≥ 90%

Q: With B5 as the binder, how does the “inhibitory effect for CD101 (flow cytometry of CD101 on Jurkat cells overexpressing CD101, 3 h, 1,600 ng/mL)” value read?
A: Its value is roughly 80%.

Q: What about the “inhibitory effect for CD101 (flow cytometry of CD101 on Jurkat cells overexpressing CD101, 8 h, 1,600 ng/mL)” value of the same binder?
A: Its value is no less than 90%.

Molecular target: T2, CD101 (human, UniProt Q93033 21-1021)
T2 chain: T1 sequence (looked up)
Experiment: FACS

Q: With B1 as the binder, how does the EC50 read?
A: The EC50 was 8.49 µg/mL.

Q: With B2 as the binder, how does the EC50 read?
A: The EC50 was 6.62 µg/mL.

Q: With B3 as the binder, how does the EC50 read?
A: The EC50 was 7.9 µg/mL.

Q: For B4, which EC50 is on record?
A: Its EC50 is 11 µg/mL.

Q: Which EC50 does the source give for B5 here?
A: Its EC50 is 9.1 µg/mL.

Molecular target: T1, CD101
Experiment: FACS, culture supernatant on 293F-CD101 cells
Protocol: Expression vectors for humanized antibodies carrying a designed heavy-chain or light-chain sequence were transiently transfected into 293F cells in pairs according to a standard protocol. Specifically, PBS was added at 2 mL/well to a 6-well plate, then 2 μg of a pcDNA3.4-IgG1 expression vector and 2 μg of a pcDNA3.4-IgKc expression vector were added, and thorough mixing was conducted by pipetting up and down. 12 μL of a LVTransm transfection reagent was added, then thorough mixing was immediately conducted by pipetting up and down, and the plate was allowed to stand at room temperature for 10 min. A DNA/LVTransm complex was added to 3 mL of 293F cells, and gentle shaking was conducted for thorough mixing. The cells were further cultured for 3 d in a 37° C. and 5% CO₂ incubator, and a culture supernatant was collected through centrifugation and tested by FACS.
FACS was conducted according to a standard protocol. […] Cells were washed with PBS 3 times. 100 μL of a secondary antibody (PE-anti-human IgG, which was diluted 1:200) was added, thorough mixing was conducted, and incubation was conducted for 45 min at room temperature in the dark. Cells were washed with PBS 3 times and then resuspended with 500 μL of PBS. A fluorescence intensity was read by a multimode microplate reader for FACS analysis. […] In the follow-up experiments, the four combinations of VH1-VL1, VH1-VL2, VH3-VL1, and VH3-VL2 (hu.CA1 to hu.CA4) were taken as examples for antibody purification and affinity testing.

Q: Does B6 bind?
A: Result: binds

Q: Does B7 bind?
A: Result: binds

Q: Does B8 bind?
A: Result: binds

Q: Does B9 bind?
A: Result: binds

Q: Does B10 bind?
A: Result: binds

Q: Does B11 bind?
A: Result: binds

Q: Does B12 bind?
A: Result: binds

Q: Does B13 bind?
A: Result: binds
